This note sets out measurements from patent US20260158142A1 (published 2026).

The test addresses T1, human amyloid beta (Aβ42), T cell epitope peptide on H2-IAb (mouse).
T1 peptide: KLVFFAEDVGSNKGA
Kind of test: multimer staining.

B1: Aβ-Th1 TCR (TCR, V domains shown)
Valpha: QQQVRQSPQSLTVWEGETAILNCSYENSAFDYFPWYQQFPGEGPALLISILSVSNKKEDGRFTIFFNKREKKLSLHIADSQPGDSATYFCAGGDYANKMIFGLGTILRVRP
Vbeta: DPKIIQKPKYLVAVTGSEKILICEQYLGHNAMYWYRQSAKKPLEFMFSYSYQKLMDNQTASSRFQPQSSKKNHLDLQITALKPDDSATYFCASSQDRSYNSPLYFAAGTRLTVT
With B1, the binding result is given as “recognises”.
